From US7553821B2, “Methods for selectively modulating survivin apoptosis pathways” (Yale University, priority 2000, dated 2009)
Residues, ends and D or L forms follow the SMILES beside them. *: point of attachment. Cbz = O=C(OCc1ccccc1)*; CH2F = FC*

Assays:
HeLa cells [1] = test: DNA content by propidium iodide staining and flow cytometry in transfected HeLa cells; format: cell-based; conditions: inhibitor 20 μM, 48 h
Protocol: HeLa cells were transfected with GFP-survivin(T34A) in the presence or in the absence of 20 μM of the caspase inhibitor, Z-VAD-fmk. Gated GFP-expressing cells were analyzed 48 h after transfection for DNA content by propidium iodide staining and flow cytometry. The percentages of apoptotic cells with sub-G1 (hypodiploid) […] DNA content are indicated. Apoptotic HeLa cells in GFP-vector transfectants were 8%. Data are representative of one experiment out of at least three independent determinations.
Transfection experiments. For transient transfection, HeLa cells in C-6 tissue culture plates (Costar, Cambridge, Mass.) at ˜60-70% confluency, were incubated in 1 ml of serum-free OptiMEM medium (Life Technologies, Gaithersburg, Md.) for 20 min, and transfected with 2.5 μg of the various plasmid cDNAs plus 9 μl Lipofectamine (Life Technologies). After a 5 h incubation at 37° C., the mixture was aspirated and substituted with complete growth medium for 48-72 h. To generate stable YUSAC-2 transfectants, a survivin(T34A) cDNA was inserted into the HindIII-SpeI sites of the pTet-splice vector (Dr. D. Schatz, Yale University School of Medicine), downstream of the regulatory sequences of the Tet-resistance operon (TetO). […] Gated GFP-expressing cells were analyzed for DNA content by flow cytometry on a FACSort (Becton Dickinson, San Jose, Calif.) using a Cell Quest software. […]

HeLa cells [2] = test: Nuclear morphology of apoptosis (DAPI) in transfected HeLa cells; format: cell-based; conditions: for HeLa cell apoptosis induced by survivin(T34A), effect of co-transfected dominant negative caspase: co-transfection
Excerpt: HeLa cells transfected with GFP-vector (vector), GFP-survivin(T34A) (T34A), or GFP-caspase-9 (Met^1-Asp^330) (caspase-9), were scored morphologically for nuclear integrity by DAPI staining after 48-h. Arrows, nuclear fragmentation and chromatin condensation in GFP-expressing cells.
The experimental procedures are the same as in A. Data are the meaνSEM of four independent experiments.
HeLa cells were transfected with the various indicated combinations of GFP-constructs, with or without etoposide (10 μg/ml) or TNFα (10 ng/ml) plus cycloheximide (10 μg/ml), harvested after 48 h, and GFP-labeled cells were morphologically scored for nuclear fragmentation by DAPI staining, as described in FIG. 2B. DN, dominant negative. Data are the mea±SEM of four independent experiments.
Transfection experiments. For transient transfection, HeLa cells in C-6 tissue culture plates (Costar, Cambridge, Mass.) at ˜60-70% confluency, were incubated in 1 ml of serum-free OptiMEM medium (Life Technologies, Gaithersburg, Md.) for 20 min, and transfected with 2.5 μg of the various plasmid cDNAs plus 9 μl Lipofectamine (Life Technologies). After a 5 h incubation at 37° C., the mixture was aspirated and substituted with complete growth medium for 48-72 h. To generate stable YUSAC-2 transfectants, a survivin(T34A) cDNA was inserted into the HindIII-SpeI sites of the pTet-splice vector (Dr. D. Schatz, Yale University School of Medicine), downstream of the regulatory sequences of the Tet-resistance operon (TetO). YUSAC-2 cells were transfected with 0.8 μg pTet-T34A, 0.8 μg of the transactivation/selection plasmid ptTA-Neo and 5 μl Lipofectamine in 1 ml of OptiMem. Forty-eight h after transfection, cells were re-plated at low density in 15×150 mm plates in growth medium containing 1.5 mg/ml Geneticin (G418, Life Technologies), 2 mM sodium hydroxide and 0.5 μg/ml Tet (Sigma, St. Louis, Mo.) (selection medium). After a 3-week culture, ninety-six individual clones were screened for differential growth in the presence or absence of Tet. […] Flow cytometry. HeLa cells transfected with the various GFP constructs in the presence or in the absence of the broad-spectrum caspase inhibitor Z-VAD-fmk (20 μM) were harvested after 48-h (non-adherent and adherent cells), washed in PBS, pH 7.0, and fixed in cold 70% ethanol for 30 min on ice. After washes in PBS, cells (10×10^6/ml) were stained with 25 μg/ml propidium iodide (Sigma), 0.05% Triton X-100 and 100 μg/ml RNAse A (Boehringer Mannheim, Indianapolis, Ind.) for 45 min at 22° C. Gated GFP-expressing cells were analyzed for DNA content by flow cytometry on a FACSort (Becton Dickinson, San Jose, Calif.) using a Cell Quest software. In other experiments, F5-C4 cells were synchronized at the G1/S boundary by culture with 5-mM thymidine for 16 h at 37° C., in the presence or in the absence of Tet. At the end of the incubation, cells were released from the thymidine block, and harvested at 3-h intervals for DNA content analysis by propidium iodide staining and flow cytometry, or, alternatively, for caspase-9 processing by Western blotting (see below). TUNEL staining. Internucleosomal DNA fragmentation of F5.C4 cells in the presence or in the absence of Tet was carried out by end-labeling with terminal deoxynucleotidyl transferase (TdT) and peroxidase-conjugated anti-digoxigenin antibody using the ApopTag kit (Intergen, Purchase, N.Y.), as described previously (Grossman et al., 1999). Immunoprecipitation and Western blotting. Asynchronously growing or synchronized HeLa cells were lysed in 200 μl of lysis buffer containing 50 mM Tris, pH 7.5, 1% NP-40, 0.25% DOC, 150 mM NaCl, 1 mM PMSF, 10 μg/ml aprotinin, 10 μg/ml leupeptin, 10 μg/ml pepstatin, 1 mM Na3VO4, 20 mM NaF, 0.2 mM EGTA, 1 mM EDTA, pH 8.0, for 30 min at 4° C. Insoluble material was removed by centrifugation at 14,000 rpm for 15 min, and two-hundred μg of protein lysate was pre-absorbed with 25 μl of a 50:50 Protein A Sepharose slurry (Pharmacia) for 3 h at 4° C. with constant agitation. […]

Molecule: COC(=O)C[C@H](NC(=O)[C@H](C)NC(=O)[C@@H](NC(=O)OCc1ccccc1)C(C)C)C(=O)CF [Z-VAD-fmk, reference compound] (Cbz-Val-Ala-Asp(OMe)-CH2F)
- effect on sub-G1 DNA content induced by GFP-survivin(T34A) (HeLa cells [1]): reversed

Molecule: Leu^64ÕAla: another survivin point mutant in the Baculovirus IAP repeat (BIR), control [reference compound]
- ability to induce spontaneous apoptosis upon transient transfection (HeLa cells [2]; survivin BIR domain mutants): did not cause apoptosis

B1: caspase-9(C287A): caspase 9 dominant negative mutant (Cys287→Ala) (protein, UniProt P55211 1-416, looked up, variant C287A)
chain: MDEADRRLLRRCRLRLVEELQVDQLWDALLSRELFRPHMIEDIQRAGSGSRRDQARQLIIDLETRGSQALPLFISCLEDTGQDMLASFLRTNRQAAKLSKPTLENLTPVVLRPEIRKPEVLRPETPRPVDIGSGGFGDVGALESLRGNADLAYILSMEPCGHCLIINNVNFCRESGLRTRTGSNIDCEKLRRRFSSLHFMVEVKGDLTAKKMVLALLELAQQDHGALDCCVVVILSHGCQASHLQFPGAVYGTDGCPVSVEKIVNIFNGTSCPSLGGKPKLFFIQAAGGEQKDHGFEVASTSPEDESPGSNPEPDATPFQEGLRTFDQLDAISSLPTPSDIFVSYSTFPGFVSWRDPKSGSWYVETLDDIFEQWAHSEDLQSLLLRVANAVSVKGIYKQMPGCFNFLRKKLFFKTS
- HeLa cell apoptosis induced by survivin(T34A), effect of co-transfected dominant negative caspase (HeLa cells [2]; 48 h): reversed HeLa cell apoptosis induced by survivin(T34A) to background levels
- nuclear fragmentation and chromatin condensation induced by etoposide (HeLa cells [2]; etoposide 10 μg/ml, 48 h): inhibited

B2: caspase-8(C360S): caspase-8 dominant negative mutant obtained from Dr. V. Dixit (protein, UniProt Q14790 1-479, looked up, variant C360S)
chain: MDFSRNLYDIGEQLDSEDLASLKFLSLDYIPQRKQEPIKDALMLFQRLQEKRMLEESNLSFLKELLFRINRLDLLITYLNTRKEEMERELQTPGRAQISAYRVMLYQISEEVSRSELRSFKFLLQEEISKCKLDDDMNLLDIFIEMEKRVILGEGKLDILKRVCAQINKSLLKIINDYEEFSKERSSSLEGSPDEFSNGEELCGVMTISDSPREQDSESQTLDKVYQMKSKPRGYCLIINNHNFAKAREKVPKLHSIRDRNGTHLDAGALTTTFEELHFEIKPHDDCTVEQIYEILKIYQLMDHSNMDCFICCILSHGDKGIIYGTDGQEAPIYELTSQFTGLKCPSLAGKPKVFFIQASQGDNYQKGIPVETDSEEQPYLEMDLSSPQTRYIPDEADFLLGMATVNNCVSYRNPAEGTWYIQSLCQSLRERCPRGDDILTILTEVNYEVSNKDDKKNMGKQMPQPTFTLRKKLVFPSD
- cell death induced by TNFα/cycloheximide (HeLa cells [2]; TNFα 10 ng/ml plus cycloheximide 10 μg/ml, 48 h): completely inhibited
- HeLa cell apoptosis induced by survivin(T34A), effect of co-transfected dominant negative caspase (HeLa cells [2]; 48 h): did not reduce apoptosis
